Laboratory results from patent US20100158968A1 (published 2010).
Like-named read-outs stand apart in the source and are kept apart here.

B1: YARAAARQARA (peptide)
peptide: YARAAARQARA
B2: KKKALNRQLGVAA (peptide)
peptide: KKKALNRQLGVAA
B3: KAFAKLAARLYRKALARQLGVAA (peptide)
peptide: KAFAKLAARLYRKALARQLGVAA

Assays:
[1] = biological target: T1, mitogen-activated protein kinase-activated protein kinase 2 (human MK2) (human, UniProt P49137 46-400); assay: kinase inhibition, radiometric assay
[2] = biological target: T1, mitogen-activated protein …; assay: kinase inhibition, radiometric assay; remark: listed apart in the source

T1 sequence (P49137 46-400): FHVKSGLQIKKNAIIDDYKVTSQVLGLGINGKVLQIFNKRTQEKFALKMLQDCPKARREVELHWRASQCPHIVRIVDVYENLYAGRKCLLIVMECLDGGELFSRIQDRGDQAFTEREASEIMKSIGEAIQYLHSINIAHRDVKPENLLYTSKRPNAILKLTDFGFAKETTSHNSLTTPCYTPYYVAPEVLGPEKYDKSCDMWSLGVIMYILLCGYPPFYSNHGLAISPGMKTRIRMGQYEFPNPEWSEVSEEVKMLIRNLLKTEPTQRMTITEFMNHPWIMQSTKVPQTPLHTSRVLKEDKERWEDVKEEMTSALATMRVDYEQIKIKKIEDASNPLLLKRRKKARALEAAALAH

Binder | IC50 [1] [µM] | IC50 [2] [µM]
B1 | > 1000 | –
B2 | 31.2 | –
B3 | – | 4.43
